Six molecules from US20150044137A1 can be followed below.

Substitutions are numbered along the chain they refer to.

For orientation: EC50 (read off the curve) means the concentration that produces a half-maximal response.

Test [1] concerns the target RSC3 probe. The test is described as follows: ELISA-type plate assay (OD450), mAb titrated on RSC3 [panel VRC13d]. In general terms: An ELISA detects its analyte on a solid surface through an enzyme-linked reagent.
Test [2] deals with RSC3 probe. The test can be described thus: ELISA-type plate assay (OD450), mAb titrated on RSC3 [panel VRC13b].
In test [3] the target is RSC3 probe. The test can be described thus: ELISA-type plate assay (OD450), mAb titrated on RSC3 [panel VRC13g].
The target in test [4] is RSC3 probe. The test can be described thus: ELISA-type plate assay (OD450), mAb titrated on RSC3 [panel VRC13e].
Test [5] deals with RSC3 probe. The test is described as follows: ELISA-type plate assay (OD450), mAb titrated on RSC3 [panel VRC13f].
Test [6] addresses RSC3 probe. The test can be described thus: ELISA-type plate assay (OD450), mAb titrated on RSC3 [panel VRC13c].

B1: VRC13d (antibody, V domains shown)
VH: QVQLVQSGAVVKSPGSSAKLSCRLLGDEFGTYFISWIRQAPGRGLEWVGGIVPHSQLQSSAQKFHGRFFITGGVTPPIIFLQLTNVTFEDTGTYFCARERGRHRDPKTGKSLRGRYFDFWGRGTGVTVSP
VL: QSVLTQPAFVSASPGQSITLSCNLGTDYVSWYQQRPSSAPRLIIFDVKNRPSGVSDRFSGYNSDTAAFLTISGLQPEDEAEYYCTSWPYNFGPGTKVDVT
In the test with RSC3 probe [1], B1 came in with an EC50 (read off the curve) of 0.02 µg/mL.

B2: VRC13b (antibody, V domains shown)
VH: QVQLVQSGTALKSPGSSAKLSCTVLGDEFGTYFISWIRQAPGQGLEWVGGIVPHSQLQSSAQKFHGRIIISAGAGVTPPVVSLQLTNLTFEDTGTYFCARERGRHRDPKTGDALRGRYFDFWGRGTGVSVSA
VL: QSVLTQPAFVSGSPGQSITLSCTLGTEDVSWYQQRPNSAPRLIIFDVKKRPSDVSDRFSGHNSDTAAFLTISELRPEDEAEYFCTSWPYRFGRGTKVDVA
In the test with RSC3 probe [2], B2 displayed an EC50 (read off the curve) of 0.02 µg/mL.

B3: VRC13g (antibody, V domains shown)
VH: QIELRQSGAAMKSPGSSVKLSCTVLGENFGTYFISWIRQAPGQGLEWVGGIVPHSQLQSSAQKFHGRIKISGGGTPPVVSLELTNVTFDDTGTYFCARERGRHVEPKTGDRLAGRYFDIWGRGTGLRVSP
VL: QSVLTQPAFVSGSPGQSITISCTVGTTDVSWYQQRPNSAPRLIIFDVKKRPSGVSDRFSGSSSDNAAFLTIAGLRPEDEAEYYCTSWPYRFGRGTKVDVG
In the test with RSC3 probe [3], B3 yielded an EC50 (read off the curve) of 0.02 µg/mL.

B4: VRC13e (antibody, V domains shown)
V domain 1: QPYIVQSGPAVKGAGSSVTVTCKVDGDDDGIFSFGTYFMVWVRQAPGQGLQYMGGLVPSYAPTYAHKFEGRITISAAGTPPVVSLTLLNLTNDDAATYFCARERGRHYDSKTRENRRGRYFDMWGRGTRITVSP
V domain 2: QSVLTQPASVSGSPGQTISISCSGTFGSDSVSWYQQYPNSAPTLIIFDVHRRPSGISTRFSGSTSGDTASLTISTLHREDEAYYYCTSHPYDFGGGTYVIVL
B4 yielded an EC50 (read off the curve) in the test with RSC3 probe [4] of 0.02 µg/mL.

B5: VRC13f (antibody, V domains shown)
V domain 1: B4 V domain 1 with K23R, S33N, L88I, D93A
V domain 2: B4 V domain 2 with Y37F, Y83F
B5 registered a concentration for a half-maximal effect (EC50 (read off the curve)) in the test with RSC3 probe [5] of 0.02 µg/mL.

B6: VRC13c (antibody, V domains shown)
VH: QLQLDQPGAAMKSLGSSLTITCRVSGDDLGSFHFGTYFMIWVRQGPGQGLEYMGGILPSTKTPTYAHKFRGRVSISAPGVPPVLSLALTNLTYDDTATYFCARERGRHFEPKNRDHLEGKFLDLWGRGTFVRVSP
VL: QSVLTQPASVSGSPGQSINISCAGRSDRVSWYQQRPNGVPKLLLFDVYRRPSGVSDRFSGSHSDDTAFLTISGLQTDDEADYYCTSHPYAFGPGTKVNVL
B6 displayed an EC50 (read off the curve) with RSC3 probe [6] of 0.02 µg/mL.
